Measured values published in paper doi:10.1101/2023.09.20.558696.

Columns and labels:
Experiment in all cases: co-IP
[1] = molecular target: LtPNUTS D101A, Pd-tagged (L. tarentolae)
[2] = molecular target: LtPNUTS R94A, Pd-tagged (L. tarentolae)
[3] = molecular target: LtPNUTS V97A, Pd-tagged (L. tarentolae)
[4] = molecular target: LtPNUTS L111A, Pd-tagged (L. tarentolae)
[5] = molecular target: LtPP1-8e 263-265A, Pd-tagged (L. tarentolae)
[6] = molecular target: LtPP1-8e I217A, Pd-tagged (L. tarentolae)
[7] = molecular target: LtPP1-8e 109-114A, Pd-tagged (L. tarentolae)
[8] = molecular target: LtPP1-8e 310DHK312 to alanine, Pd-tagged (L. tarentolae)
[9] = molecular target: LtPP1-8e F305A, Pd-tagged (L. tarentolae)
[10] = molecular target: LtPP1-8e CΔ23, Pd-tagged (L. tarentolae)
[11] = molecular target: LtPP1-8e 359-362A, Pd-tagged (L. tarentolae)
[12] = molecular target: LtPP1-8e CΔ11, Pd-tagged (L. tarentolae)
[13] = molecular target: LtPP1-8e D290A, Pd-tagged (L. tarentolae)
[14] = molecular target: LtPP1-8e D292A, Pd-tagged (L. tarentolae)
[15] = molecular target: LtPP1-8e I360A, Pd-tagged (L. tarentolae)
[16] = molecular target: LtPP1-8e 260LP261 to alanine, Pd-tagged (L. tarentolae)
[17] = molecular target: LtPP1-8e 109-134Δ, Pd-tagged (L. tarentolae)
[18] = molecular target: LtPP1-8e 354-358A, Pd-tagged (L. tarentolae)

decrease of co-IP against WT PNUTS [1] [%]	reduction of co-IP against WT PNUTS [2] [%]	fold decrease of co-IP against WT PNUTS [3] [fold]	reduction of co-IP against WT PNUTS [4] [%]	reduction of co-IP against WT PP1-8e [5] [%]	reduction of co-IP against WT PP1-8e [6] [%]	reduction of co-IP against WT PP1-8e [7] [%]	decrease of co-IP against WT PP1-8e [8] [%]	reduction of co-IP against WT PP1-8e [9] [%]	loss of co-IP against WT PP1-8e [10] [%]	reduction of co-IP against WT PP1-8e [11] [%]	reduction of co-IP against WT PP1-8e [12] [%]	reduction of co-IP against WT PP1-8e [13] [%]	reduction of co-IP against WT PP1-8e [14] [%]	reduction of co-IP against WT PP1-8e [15] [%]	reduction of co-IP against WT PP1-8e [16] [%]	reduction of co-IP against WT PP1-8e [17] [%]	reduction of co-IP against WT PP1-8e [18] [%]	Substance
80	50	5	80	–	–	–	–	–	–	–	–	–	–	–	–	–	–	LtPP1-8e, endogenously HA-tagged (enzyme)
–	–	–	–	90	50	80	20	80	80	80	30	50	60	80	80	80	50	LtPNUTS, endogenously HA-tagged (natural protein)
